Results taken from patent publication US20240158497A1 (published 2024).

B1: MAb16622 (antibody, V domains shown)
VH: EVQLVESGGGVVRPGGSLRLSCTASGFTFDDYGMSWVRQAPGKGLEWVSGINWNGGRTEYADAVKGRFIISRDNAKNSLYLQMNSLRAEDTALYFCARTELRWDYWGQGTLVTVSS
VL: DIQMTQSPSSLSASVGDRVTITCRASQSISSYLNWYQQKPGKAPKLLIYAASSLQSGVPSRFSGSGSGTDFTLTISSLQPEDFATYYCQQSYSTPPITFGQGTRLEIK
notes: hIgG4 isotype control used
B2: MAb16656 (antibody, V domains shown)
VH: EVQLVESGGGLVQPGRSLRLSCAASGFTLDDFAMHWVRQAPGKGLEWVSGISWNSGNIGYADSVKGRFTISRDNARNSLYLQMNSLRAEDTALYYCTSGYYLYYAMDVWGQGTTVTVSS
VL: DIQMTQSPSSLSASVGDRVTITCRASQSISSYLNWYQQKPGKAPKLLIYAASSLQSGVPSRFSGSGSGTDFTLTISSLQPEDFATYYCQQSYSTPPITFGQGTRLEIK
notes: hIgG4 isotype control used
B3: MAb16664 (antibody, V domains shown)
VH: QVQLVQSGTEVKKPGSSVKVSCKASGGTFSTYPINWVRQAPGQGLEWMGGIIPIFGTASYAQKFQGRVAITTDESTSTAYMELNSLRSEDTAVYYCARERPNWGSNDYWGQGTLVTVSS
VL: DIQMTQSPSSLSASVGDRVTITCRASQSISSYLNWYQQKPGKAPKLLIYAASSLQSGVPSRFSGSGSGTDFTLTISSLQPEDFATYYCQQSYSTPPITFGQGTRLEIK
notes: hIgG4 isotype control used
B4: MAb16637 (antibody, V domains shown)
VH: QVQLVQSGAEVKKPGASVKVSCKASGYTFTSLGISWVRQAPGQGLEWMGWISAYSGNRDYAQKFQGRVTMTTDTSTSTAYMELRSLRSDDTAVYYCARSLRFDYWGQGTLVTVSS
VL: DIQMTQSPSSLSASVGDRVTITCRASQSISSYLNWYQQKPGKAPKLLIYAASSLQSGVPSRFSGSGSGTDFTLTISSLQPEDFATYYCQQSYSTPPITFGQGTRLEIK
notes: hIgG4 isotype control used
B5: MAb16659 (antibody, V domains shown)
VH: QVQLVQSGPEVKKPGSSVKVSCKASGGTIDRNEITWVRQAPGQGLEWMGVIIPILGEAHYERKFQGRLTITMDESTSTAYMELSNLRSEDTAVYYCARERAARGYLDYWGQGTLVTVSS
VL: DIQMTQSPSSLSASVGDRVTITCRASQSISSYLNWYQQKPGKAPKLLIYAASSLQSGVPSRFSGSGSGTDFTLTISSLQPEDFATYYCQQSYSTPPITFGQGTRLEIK
notes: hIgG4 isotype control used
B6: MAb16669 (antibody, V domains shown)
VH: EVQLVESGGGLVQPGGSLRLSCAASGFTFSSYAMNWVRQAPGKGLEWVSAISGSGDSTYYTDSVKGRFTISRDNSKNTLYLQMNTLRAEDTAVYYCAKEEIVMLVGATPGWFDPWGQGTLVTVSS
VL: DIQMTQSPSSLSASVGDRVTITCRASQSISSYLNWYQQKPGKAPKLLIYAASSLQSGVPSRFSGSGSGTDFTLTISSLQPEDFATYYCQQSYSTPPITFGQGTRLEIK
notes: hIgG4 isotype control used
B7: MAb16665 (antibody, V domains shown)
VH: QVQLVESGGGVVQPGRSLRLACAASGFTFRSYGMHWVRQAPGKGLEWVAVIWYDGSNKYYTDSVKGRFTISRDNSKNTLYLQMNSLRAEDTAMYYCAIDKWATVTTYLFDYWGQGTLVTVSS
VL: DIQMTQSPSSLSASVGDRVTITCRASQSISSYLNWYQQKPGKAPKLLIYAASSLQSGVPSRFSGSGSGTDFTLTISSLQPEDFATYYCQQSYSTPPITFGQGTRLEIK
notes: hIgG4 isotype control used
B8: MAb16662 (antibody, V domains shown)
VH: EVQLVESGGGLVQPGGSLRLSCTASGFTFSNYAIFWVRQAPGKGLEYVSGISNNGVTKYYADSVRDRFTISRDNSRNTVSIQMDSLRTEDMAVYYCARENWGSDDGFDIWGQGTMVTVSS
VL: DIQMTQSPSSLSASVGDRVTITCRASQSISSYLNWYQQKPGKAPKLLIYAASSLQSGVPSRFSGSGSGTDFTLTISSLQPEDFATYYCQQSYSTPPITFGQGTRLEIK
notes: hIgG4 isotype control used

Columns and labels:
[1] = molecular target: T1, human GP130 full length extracellular domain with C-terminal myc-myc-hexahistidine tag (human, UniProt P40189 23-619); experiment: Luminex, antigen captured on anti-myc beads
T1 construct: Monomeric; also called human GP130-MMH; hGP130-mmH
Experimental: (§1) Aliquots of microspheres with immobilized anti-myc monoclonal antibodies, prepared as described above, were added individually to 1 mL of the each of these protein supernatants and to 500 uL of purified GP130 protein. The microspheres were gently mixed, incubated for two hours at 25° C., washed twice with 1 mL of DBPS, centrifuged to remove the supernatant and finally resuspended in 1 mL of DPBS buffer. Forty eight μL of anti-myc IgG coupled microspheres from individual reactions with full length human GP130 and with each of the human GP130 domain proteins were withdrawn and mixed together in 3.6 mL of PBS+20 mg/mL BSA+0.05% sodium azide (blocking buffer).
(§2) From this mixed pool, 75 μL of microspheres were plated per well on a 96 well filter plate (Millipore, Cat. No: MSBVN1250) and mixed with 25 μL of individual anti-human GP130 monoclonal antibodies (0.5 or 5 μg/mL), incubated for two hours at 25° C. and then washed twice with 200 μL of DPBS with 0.05% Tween 20 (washing buffer). To detect and quantify the amounts of bound anti-GP130 antibody levels to individual microspheres, either 100 μL of 2.5 μg/mL R-Phycoerythrin conjugated goat F(ab′)2 anti-human kappa (Southern Biotech, Cat #2063-09) in blocking buffer, was added and incubated for 30 minutes at 25° C. After 30 minutes, the samples were washed twice with 200 μL of washing buffer and resuspended in 150 μL of wash buffer. The Median Fluorescence intensity (MFI) of the microspheres was measured in a Luminex Analyzer.

[2] = molecular target: T2, human GP130 delta D1 with C-terminal myc-myc hexahistidine tag (human, UniProt P40189 124-619); experiment: Luminex, antigen captured on anti-myc beads
T2 construct: used as CHO supernatant; also called human GP130 delta D1-MMH; GP130 Delta D1 extracellular domain
Experimental: as §1, §2

[3] = molecular target: T3, human GP130 delta D1-D3 with C-terminal myc-myc hexahistidine tag (human, UniProt P40189 329-619); experiment: Luminex, antigen captured on anti-myc beads
T3 construct: used as CHO supernatant; also called human GP130 delta D1-D3-MMH; GP130 Delta D1-D3 extracellular domain
Experimental: as §1, §2

[4] = molecular target: T4, full length (FL) human gp130 over-expressed on HEK293/Stat3-luc/gp130-2X Sort cells (human, UniProt P40189 23-918); experiment: FACS, 10 nM Ab, HEK293/Stat3-luc/gp130-2X Sort cells
T4 sequence: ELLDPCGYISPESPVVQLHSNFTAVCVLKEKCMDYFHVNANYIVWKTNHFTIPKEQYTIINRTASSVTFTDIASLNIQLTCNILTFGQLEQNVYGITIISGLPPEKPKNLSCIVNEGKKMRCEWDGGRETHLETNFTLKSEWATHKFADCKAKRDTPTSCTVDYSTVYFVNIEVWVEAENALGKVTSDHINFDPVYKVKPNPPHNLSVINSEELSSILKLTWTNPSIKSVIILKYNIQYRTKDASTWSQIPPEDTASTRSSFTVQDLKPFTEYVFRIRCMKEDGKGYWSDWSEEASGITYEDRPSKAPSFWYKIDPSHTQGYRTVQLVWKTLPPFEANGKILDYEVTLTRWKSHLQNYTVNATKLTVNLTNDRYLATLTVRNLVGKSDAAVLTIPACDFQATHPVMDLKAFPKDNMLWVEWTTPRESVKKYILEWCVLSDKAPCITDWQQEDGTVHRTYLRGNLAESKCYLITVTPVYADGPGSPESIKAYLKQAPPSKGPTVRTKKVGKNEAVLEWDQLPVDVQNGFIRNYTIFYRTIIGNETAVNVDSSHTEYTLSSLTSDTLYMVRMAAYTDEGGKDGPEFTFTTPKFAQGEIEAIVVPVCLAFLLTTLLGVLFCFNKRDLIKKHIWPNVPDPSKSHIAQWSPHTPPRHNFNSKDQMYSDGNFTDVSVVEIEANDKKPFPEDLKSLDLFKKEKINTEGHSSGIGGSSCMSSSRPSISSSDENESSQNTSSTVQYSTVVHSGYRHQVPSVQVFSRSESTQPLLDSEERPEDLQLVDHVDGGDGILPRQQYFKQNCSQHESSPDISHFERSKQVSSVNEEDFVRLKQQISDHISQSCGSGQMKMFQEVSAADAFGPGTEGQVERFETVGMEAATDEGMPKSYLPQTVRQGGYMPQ
Excerpt: (§3) In order to assess cell binding by anti-GP130 antibodies of the invention two cell lines were generated. One cell line generated was HEK293 cells stably over-expressing full length (FL) human gp130 (amino acids 1-918 of accession #P40189 with leucine at position 2 changed to valine, a natural variant) along with a luciferase reporter (Stat3-luciferase, Stat3-luc, SA Bioscience, #CLS-6028L). The cells were sorted twice using flow cytometry for high expression of gp130. It is known hereafter as HEK293/Stat3-luc/gp130-2 X Sort. IMR-32 cells (human Neuroblastoma, ATCC), were also evaluated for cell binding as these cells express gp130 endogenously and were used for bioassays. The cells used for binding were generated to stably express a luciferase reporter (Stat3-luciferase, Stat3-luc, SA Bioscience, #CLS-6028L), and are referred to hereafter as IMR-32/STAT3-Luc cells.
(§4) For the FACS analysis, 10 nM of the antibodies were used to stain 0.5×10⁶ cells/well of each cell type at 4° C. in PBS (without calcium and magnesium) containing 2% FBS for 30 minutes. IMR-32/STAT3-luc cells were incubated with 1 mg/mL mouse IgG for 30 minutes at 4° C. to block Fc receptors prior to adding the antibodies. To test whether the anti-gp130 antibody binding is specific for gp130 on the IMR-32 cells, antibodies were added to IMR-32/Stat3-luc cells with or without being pre-bound to 1000 nM of recombinant protein of the ecto-domain of human gp130 fused to myc-myc-his tag (hgp130.mmh) for 30 minutes at 25° C. […] Cells were fixed using BD CytoFix™ (Becton Dickinson, #554655) and analyzed on an IQue® (Intellicyt®) Flow Cytometer. Unstained and secondary antibody alone controls were also tested for all cell lines. The results were analyzed using ForeCyt® (IntelliCyt®) software to determine the geometric means of fluorescence for viable cells.

[5] = molecular target: T5, human gp130 expressed endogenously on IMR-32/Stat3-luc cells (human, UniProt P40189 23-918); experiment: FACS, 10 nM Ab pre-bound to 1 uM hGP130.mmh, IMR-32/Stat3-luc cells
T5 construct: Endogenous gp130 of the human neuroblastoma line IMR-32
T5 sequence: T4 sequence
Excerpt: as §3, §4

T3 sequence (P40189 other isoform, or with tags, fused parts or gaps mutant limits assumed): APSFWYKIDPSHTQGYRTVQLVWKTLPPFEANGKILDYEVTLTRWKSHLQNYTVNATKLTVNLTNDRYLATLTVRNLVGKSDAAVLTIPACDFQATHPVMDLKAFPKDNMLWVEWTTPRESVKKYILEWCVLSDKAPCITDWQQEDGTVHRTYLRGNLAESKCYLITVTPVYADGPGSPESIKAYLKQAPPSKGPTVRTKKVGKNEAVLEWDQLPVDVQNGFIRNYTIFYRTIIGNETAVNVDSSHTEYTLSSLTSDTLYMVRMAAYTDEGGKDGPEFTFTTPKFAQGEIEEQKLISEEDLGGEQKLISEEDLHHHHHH
T2 sequence (P40189 other isoform, or with tags, fused parts or gaps mutant limits assumed): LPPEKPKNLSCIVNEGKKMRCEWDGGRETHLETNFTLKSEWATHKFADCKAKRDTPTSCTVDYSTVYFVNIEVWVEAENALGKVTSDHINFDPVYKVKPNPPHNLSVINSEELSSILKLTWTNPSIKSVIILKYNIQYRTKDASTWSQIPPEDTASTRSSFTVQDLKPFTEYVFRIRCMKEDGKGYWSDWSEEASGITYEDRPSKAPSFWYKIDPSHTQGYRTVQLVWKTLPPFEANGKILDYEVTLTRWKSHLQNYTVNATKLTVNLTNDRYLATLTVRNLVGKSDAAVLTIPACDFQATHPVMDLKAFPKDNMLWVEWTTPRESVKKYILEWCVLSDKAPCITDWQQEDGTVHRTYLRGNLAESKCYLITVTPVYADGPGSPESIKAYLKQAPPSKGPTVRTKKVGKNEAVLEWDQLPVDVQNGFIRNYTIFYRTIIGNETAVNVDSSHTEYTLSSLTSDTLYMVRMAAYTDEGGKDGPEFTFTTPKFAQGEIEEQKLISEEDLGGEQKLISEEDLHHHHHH

Binder	Luminex MFI signal [1] [MFI]	Luminex MFI signal [2] [MFI]	Luminex MFI signal [3] [MFI]	MFI - Normalized to Unstained Control [4] [ratio]	MFI - Normalized to Unstained Control [5] [ratio]
B1	18500	391	20	91	7
B2	15900	48	17	132	7
B3	19300	442	419	45	8
B4	16900	342	861	121	7
B5	17100	49	22	81	8
B6	17600	12600	15100	53	5
B7	16300	119	116	55	6
B8	13900	3050	16	49	6
